The values below come from the supplement of paper PMC7877785.

The data set is described as follows: self-splicing fitness, log relative to wild type (ln ratio); higher = more splicing; Tetrahymena group I intron in knt gene, E. coli kanamycin selection, DiMSum; sequences stand for … in CUCUCU…GGAGGGAAAAGUUAUCAGGCAUGCACCUGGUAGCUAGUCUUUAAACCAAUAGAUUGCAUCGGUUUAAAAGGCAAGACCGUCAAAUUGCGGGAAAGGGGUCAACAGCCGUUCAGUACCAAGUCUCAGGGGAAACUUUGAGAUGGCCUUGCAAAGGGUAUGGUAAUAAGCUGACGGACAUGGUCCUAACCACGCAGCCAAGUCCUAAGUCAACAGAUCUUCUGUUGAUAUGGAUGCAGUUCACAGACUAAAUGUCGGUCGGGGAAGAUGUAUUCUUCUCAUAAGAUAUAGUCGGACCUCUCCUUAAUGGGAGCUAGCGGAUGAAGUGAUGCAACACUGGAGCCGCUGGGAACUAAUUUGUAUGCGAAAGUAUAUUGAUUAGUUUUGGAGUACUCGUGGUCG
A digest of the protocol: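 Pooled colonies went to amplicon sequencing on an Illumina HiSeq 2500 after six replicate transformations. The plates were LB agar with 100 μg/mL carbenicillin, 50 μM IPTG and 0.2% rhamnose, with or without 25 μg/mL kanamycin, incubated overnight at 37°C or 30°C. The E. coli BL21(DE3) library had all eight P1ex-region intron nucleotides randomised, the intron placed in the knt kanamycin-resistance gene on pET-22b(+). DiMSum fitness is the error-weighted combination of replicate fold changes, kanamycin against none, normalised to wild type.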

± gives the uncertainty stated by the source.

As for UGGAAGCAAUAUUACGGCGG, the “self-splicing fitness (ln)” value is, setting by setting: (30 °C) -0.545 ± 0.08; (37 °C) -0.13 ± 0.1.

Turning to GCUAAGCAAUAUUACGGUAU, the “self-splicing fitness (ln)” value is -0.915 ± 0.083 (30 °C) and -0.555 ± 0.1 (37 °C).

For the sequence GCUUAGCAAUAUUACGUCGA, the “self-splicing fitness (ln)” value (30 °C) was -1.67 ± 0.088 and the “self-splicing fitness (ln)” value (37 °C) is -0.777 ± 0.11.

On to CGCAAGCAAUAUUACGUGCU, for which the “self-splicing fitness (ln)” value (30 °C) was -0.881 ± 0.069 and the “self-splicing fitness (ln)” value (37 °C) was -0.489 ± 0.081.

For CGAUAGCAAUAUUACGUGUA, the “self-splicing fitness (ln)” value is -2.23 ± 0.12 (30 °C) and -2.15 ± 0.2 (37 °C).

Regarding GACAAGCAAUAUUACGUAGG, the “self-splicing fitness (ln)” value was -3.07 ± 0.11 (30 °C) and -2.22 ± 0.13 (37 °C).

On to CUCAAGCAAUAUUACGGUUU, for which the “self-splicing fitness (ln)” value reads like this: (30 °C) -2.38 ± 0.1; (37 °C) -2.36 ± 0.14.

Regarding CACUAGCAAUAUUACGUCGC, the “self-splicing fitness (ln)” value reads like this: (30 °C) -3.66 ± 0.24; (37 °C) -2.66 ± 0.27.

Turning to GAGUAGCAAUAUUACGCGGG, the “self-splicing fitness (ln)” value was -3.59 ± 0.2 (30 °C) and -2.55 ± 0.16 (37 °C).

Turning to ACGUAGCAAUAUUACGUAAU, the “self-splicing fitness (ln)” value was -2.35 ± 0.13 (30 °C) and -2.34 ± 0.15 (37 °C).

Consider GGUCAGCAAUAUUACGUACA, for which the “self-splicing fitness (ln)” value (30 °C) was -0.423 ± 0.087 and the “self-splicing fitness (ln)” value (37 °C) stood at 0.547 ± 0.14.

Regarding AAUAAGCAAUAUUACGUCAU, the “self-splicing fitness (ln)” value is -1.39 ± 0.062 (30 °C) and -0.608 ± 0.092 (37 °C).

For the sequence GCGAAGCAAUAUUACGUAGC, the “self-splicing fitness (ln)” value reads like this: (30 °C) -3.43 ± 0.23; (37 °C) -2.22 ± 0.23.

Take GAAUAGCAAUAUUACGGUAA: the “self-splicing fitness (ln)” value is, setting by setting: (30 °C) -2.25 ± 0.16; (37 °C) -0.943 ± 0.13.

Turning to CCAUAGCAAUAUUACGGCGC, the “self-splicing fitness (ln)” value (30 °C) was -1.25 ± 0.19 and the “self-splicing fitness (ln)” value (37 °C) is -2.07 ± 0.3.

For the sequence GAAUAGCAAUAUUACGAUAA, the “self-splicing fitness (ln)” value is -1.51 ± 0.1 (30 °C) and -0.77 ± 0.13 (37 °C).

In the case of CCCAAGCAAUAUUACGUAUC, the “self-splicing fitness (ln)” value was -4.03 ± 0.14 (30 °C) and -2.52 ± 0.14 (37 °C).

Consider CGAAAGCAAUAUUACGCCCG, for which the “self-splicing fitness (ln)” value reads like this: (30 °C) -1.9 ± 0.18; (37 °C) -0.623 ± 0.21.

Consider CCGAAGCAAUAUUACGCUCC, for which the “self-splicing fitness (ln)” value (30 °C) is -2.86 ± 0.44.

CUAUAGCAAUAUUACGCUCG: the “self-splicing fitness (ln)” value runs as follows: (30 °C) -1.74 ± 0.12; (37 °C) -0.741 ± 0.14.

For CAAUAGCAAUAUUACGCUUG, the “self-splicing fitness (ln)” value reads like this: (30 °C) -2.63 ± 0.14; (37 °C) -2.01 ± 0.16.

On to UUAGAGCAAUAUUACGUCGU, for which the “self-splicing fitness (ln)” value reads like this: (30 °C) -3.46 ± 0.4; (37 °C) -1.26 ± 0.21.

Consider GCCUAGCAAUAUUACGGACU, for which the “self-splicing fitness (ln)” value is -1.01 ± 0.1 (30 °C) and -0.221 ± 0.11 (37 °C).

For the sequence UUCGAGCAAUAUUACGACGC, the “self-splicing fitness (ln)” value (37 °C) was -2.67 ± 0.48.

As to ACGAAGCAAUAUUACGGAGC, the “self-splicing fitness (ln)” value is, setting by setting: (30 °C) -3.94 ± 0.27; (37 °C) -1.29 ± 0.23.

In the case of CAGUAGCAAUAUUACGCGAG, the “self-splicing fitness (ln)” value is, setting by setting: (30 °C) -2.01 ± 0.16; (37 °C) -0.736 ± 0.12.

For the sequence ACGCAGCAAUAUUACGUAGA, the “self-splicing fitness (ln)” value reads like this: (30 °C) -2.99 ± 0.16; (37 °C) -2.53 ± 0.21.

On to CAGUAGCAAUAUUACGACUG, for which the “self-splicing fitness (ln)” value was -4.55 ± 0.26 (30 °C) and -2.84 ± 0.23 (37 °C).

Consider UCCCAGCAAUAUUACGUCAC, for which the “self-splicing fitness (ln)” value runs as follows: (30 °C) -4.1 ± 0.33; (37 °C) -3.23 ± 0.33.

For the sequence AAAAAGCAAUAUUACGCGGC, the “self-splicing fitness (ln)” value (30 °C) was -3.53 ± 0.26 and the “self-splicing fitness (ln)” value (37 °C) is -2.15 ± 0.27.

With CCCUAGCAAUAUUACGUGGC, the “self-splicing fitness (ln)” value (30 °C) is -3.35 ± 0.18 and the “self-splicing fitness (ln)” value (37 °C) is -2.68 ± 0.16.

For UCGAAGCAAUAUUACGUAUC, the “self-splicing fitness (ln)” value (30 °C) is -3.96 ± 0.35.

Consider AGGGAGCAAUAUUACGGAAG, for which the “self-splicing fitness (ln)” value (30 °C) was -3.61 ± 0.4 and the “self-splicing fitness (ln)” value (37 °C) is -1.02 ± 0.33.

With AACGAGCAAUAUUACGUAUG, the “self-splicing fitness (ln)” value was -4.21 ± 0.23 (30 °C) and -2.59 ± 0.17 (37 °C).
